Drawing on article PMC5739758, “Human oncoprotein Musashi-2 N-terminal RNA recognition motif backbone assignment and identification of RNA-binding pocket”, this text covers binding result and Kd for three molecules.

The target of data set [1] is T1, MSI2-RRM1 (human, UniProt Q96DH6 21-111). Kind of data set: TR-FRET; 2 nM RNA; no detectable binding in nM range; TR-FRET at room temperature (FP per earlier publication; binding buffers not given; protein stored in 50 mM Tris-HCl pH 8.0, 500 mM NaCl); NMR 20 mM MES pH 6.0, 150 mM NaCl, 5% D2O, 298 K. To be noted: protein: recombinant; tags: N-terminal His6 + TEV site (residues -3 to 20); label: 3' biotin. (In general: TR-FRET usually uses a lanthanide donor and a delayed reading to cut background.)

Data set [2] addresses T1, MSI2-RRM1. The data set can be described thus: NMR; 1H-15N HSQC titration, 1:1, slow exchange; TR-FRET at room temperature (FP per earlier publication; binding buffers not given; protein stored in 50 mM Tris-HCl pH 8.0, 500 mM NaCl); NMR 20 mM MES pH 6.0, 150 mM NaCl, 5% D2O, 298 K. As to conditions: protein: recombinant; tags: N-terminal His6 + TEV site (residues -3 to 20).

Data set [3] concerns the target T1, MSI2-RRM1. Kind of data set: TR-FRET; 2 nM RNA; TR-FRET at room temperature (FP per earlier publication; binding buffers not given; protein stored in 50 mM Tris-HCl pH 8.0, 500 mM NaCl); NMR 20 mM MES pH 6.0, 150 mM NaCl, 5% D2O, 298 K. As to conditions: protein: recombinant; tags: N-terminal His6 + TEV site (residues -3 to 20); label: 3' biotin.

What is called Kd is the free concentration of one partner at which half of the binding sites on the other are occupied at equilibrium, for simple one-to-one binding.

T1 sequence (Q96DH6 21-111): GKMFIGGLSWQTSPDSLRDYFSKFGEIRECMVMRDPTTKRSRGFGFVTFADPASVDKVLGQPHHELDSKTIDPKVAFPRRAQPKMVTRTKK

With UAGCAUCAUCAUUUA (ssRNA) [Numb-mutBiotin], the binding result in data set [1] was “no binding”.
GUAGU (ssRNA) [Numb5]: the binding result in data set [2] is “binds”.
For UAGGUAGUAGUUUUA (ssRNA) [NumbBiotin], in data set [3], the Kd was found to be 2.07 nM.
